In US20240270846A1 (published 2024):

B1: CE115HA000 V95E one-arm antibody (antibody, human IgG1, kappa, L234A L235A, N297A, name in Kabat numbering)
heavy: QVQLVESGGGVVQPGRSLRLSCAASGFTFSNAWMHWVRQAPGKGLEWVAQIKAKSNNYATYYAESVKGRFTISRDDSKNSLYLQMNSLKTEDTAVYYCRYEHYGAYYGVDAWGQGTTVTVSSASTKGPSVFPLAPSSKSTSGGTAALGCLVKDYFPEPVTVSWNSGALTSGVHTFPAVLQSSGLYSLSSVVTVPSSSLGTQTYICNVNHKPSNTKVDKKVEPKSCDKTHTCPPCPAPEAAGGPSVFLFPPKPKDTLMISRTPEVTCVVVDVSHEDPEVKFNWYVDGVEVHNAKTKPREEQYASTYRVVSVLTVLHQDWLNGKEYKCKVSNKALPAPIEKTISKAKGQPREPQVYTLPPSRCELTKNQVSLSCAVKGFYPSDIAVEWESNGQPENNYKTTPPVLDSDGSFFLVSKLTVDKSRWQQGNVFSCSVMHEALHNHYTQKSLSLSPDYKDDDDK
chain: EPKSSDKTHTCPPCPAPELLGGPSVFLFPPKPKDTLMISRTPEVTCVVVDVSHEDPEVKFNWYVDGVEVHNAKTKPREEQYNSTYRVVSVLTVLHQDWLNGKEYKCKVSNKALPAPIEKTISKAKGQPREPQVCTLPPSRDELTKNQVSLWCLVKGFYPSDIAVEWESNGQPENNYKTTPPVLDSDGSFFLYSKLTVDKSRWQQGNVFSCSVMHEALHNRYTQKSLSLSP
light: DIVMTQSPLSLPVTPGEPASISCRSSQSLVHSNRNTYLHWYQQKPGQAPRLLIYKVSNRFSGVPDRFSGSGSGTDFTLKISRVEAEDVGVYYCGQGTQVPYTFGQGTKLEIKRTVAAPSVFIFPPSDEQLKSGTASVVCLLNNFYPREAKVQWKVDNALQSGNSQESVTEQDSKDSTYSLSSTLTLSKADYEKHKVYACEVTHQGLSSPVTKSFNRGEC
notes: one-arm antibody (one Fab)
B2: CE115HA000 V95K one-arm antibody (antibody, human IgG1, kappa, L234A L235A, N297A, name in Kabat numbering)
heavy: QVQLVESGGGVVQPGRSLRLSCAASGFTFSNAWMHWVRQAPGKGLEWVAQIKAKSNNYATYYAESVKGRFTISRDDSKNSLYLQMNSLKTEDTAVYYCRYKHYGAYYGVDAWGQGTTVTVSSASTKGPSVFPLAPSSKSTSGGTAALGCLVKDYFPEPVTVSWNSGALTSGVHTFPAVLQSSGLYSLSSVVTVPSSSLGTQTYICNVNHKPSNTKVDKKVEPKSCDKTHTCPPCPAPEAAGGPSVFLFPPKPKDTLMISRTPEVTCVVVDVSHEDPEVKFNWYVDGVEVHNAKTKPREEQYASTYRVVSVLTVLHQDWLNGKEYKCKVSNKALPAPIEKTISKAKGQPREPQVYTLPPSRCELTKNQVSLSCAVKGFYPSDIAVEWESNGQPENNYKTTPPVLDSDGSFFLVSKLTVDKSRWQQGNVFSCSVMHEALHNHYTQKSLSLSPDYKDDDDK
chain: EPKSSDKTHTCPPCPAPELLGGPSVFLFPPKPKDTLMISRTPEVTCVVVDVSHEDPEVKFNWYVDGVEVHNAKTKPREEQYNSTYRVVSVLTVLHQDWLNGKEYKCKVSNKALPAPIEKTISKAKGQPREPQVCTLPPSRDELTKNQVSLWCLVKGFYPSDIAVEWESNGQPENNYKTTPPVLDSDGSFFLYSKLTVDKSRWQQGNVFSCSVMHEALHNRYTQKSLSLSP
light: DIVMTQSPLSLPVTPGEPASISCRSSQSLVHSNRNTYLHWYQQKPGQAPRLLIYKVSNRFSGVPDRFSGSGSGTDFTLKISRVEAEDVGVYYCGQGTQVPYTFGQGTKLEIKRTVAAPSVFIFPPSDEQLKSGTASVVCLLNNFYPREAKVQWKVDNALQSGNSQESVTEQDSKDSTYSLSSTLTLSKADYEKHKVYACEVTHQGLSSPVTKSFNRGEC
notes: one-arm antibody (one Fab)
B3: CE115HA000 V95S one-arm antibody (antibody, human IgG1, kappa, L234A L235A, N297A, name in Kabat numbering)
heavy: QVQLVESGGGVVQPGRSLRLSCAASGFTFSNAWMHWVRQAPGKGLEWVAQIKAKSNNYATYYAESVKGRFTISRDDSKNSLYLQMNSLKTEDTAVYYCRYSHYGAYYGVDAWGQGTTVTVSSASTKGPSVFPLAPSSKSTSGGTAALGCLVKDYFPEPVTVSWNSGALTSGVHTFPAVLQSSGLYSLSSVVTVPSSSLGTQTYICNVNHKPSNTKVDKKVEPKSCDKTHTCPPCPAPEAAGGPSVFLFPPKPKDTLMISRTPEVTCVVVDVSHEDPEVKFNWYVDGVEVHNAKTKPREEQYASTYRVVSVLTVLHQDWLNGKEYKCKVSNKALPAPIEKTISKAKGQPREPQVYTLPPSRCELTKNQVSLSCAVKGFYPSDIAVEWESNGQPENNYKTTPPVLDSDGSFFLVSKLTVDKSRWQQGNVFSCSVMHEALHNHYTQKSLSLSPDYKDDDDK
chain: EPKSSDKTHTCPPCPAPELLGGPSVFLFPPKPKDTLMISRTPEVTCVVVDVSHEDPEVKFNWYVDGVEVHNAKTKPREEQYNSTYRVVSVLTVLHQDWLNGKEYKCKVSNKALPAPIEKTISKAKGQPREPQVCTLPPSRDELTKNQVSLWCLVKGFYPSDIAVEWESNGQPENNYKTTPPVLDSDGSFFLYSKLTVDKSRWQQGNVFSCSVMHEALHNRYTQKSLSLSP
light: DIVMTQSPLSLPVTPGEPASISCRSSQSLVHSNRNTYLHWYQQKPGQAPRLLIYKVSNRFSGVPDRFSGSGSGTDFTLKISRVEAEDVGVYYCGQGTQVPYTFGQGTKLEIKRTVAAPSVFIFPPSDEQLKSGTASVVCLLNNFYPREAKVQWKVDNALQSGNSQESVTEQDSKDSTYSLSSTLTLSKADYEKHKVYACEVTHQGLSSPVTKSFNRGEC
notes: one-arm antibody (one Fab)
B4: CE115HA000 V100cE one-arm antibody (antibody, human IgG1, kappa, L234A L235A, N297A, name in Kabat numbering)
heavy: QVQLVESGGGVVQPGRSLRLSCAASGFTFSNAWMHWVRQAPGKGLEWVAQIKAKSNNYATYYAESVKGRFTISRDDSKNSLYLQMNSLKTEDTAVYYCRYVHYGAYYGEDAWGQGTTVTVSSASTKGPSVFPLAPSSKSTSGGTAALGCLVKDYFPEPVTVSWNSGALTSGVHTFPAVLQSSGLYSLSSVVTVPSSSLGTQTYICNVNHKPSNTKVDKKVEPKSCDKTHTCPPCPAPEAAGGPSVFLFPPKPKDTLMISRTPEVTCVVVDVSHEDPEVKFNWYVDGVEVHNAKTKPREEQYASTYRVVSVLTVLHQDWLNGKEYKCKVSNKALPAPIEKTISKAKGQPREPQVYTLPPSRCELTKNQVSLSCAVKGFYPSDIAVEWESNGQPENNYKTTPPVLDSDGSFFLVSKLTVDKSRWQQGNVFSCSVMHEALHNHYTQKSLSLSPDYKDDDDK
chain: EPKSSDKTHTCPPCPAPELLGGPSVFLFPPKPKDTLMISRTPEVTCVVVDVSHEDPEVKFNWYVDGVEVHNAKTKPREEQYNSTYRVVSVLTVLHQDWLNGKEYKCKVSNKALPAPIEKTISKAKGQPREPQVCTLPPSRDELTKNQVSLWCLVKGFYPSDIAVEWESNGQPENNYKTTPPVLDSDGSFFLYSKLTVDKSRWQQGNVFSCSVMHEALHNRYTQKSLSLSP
light: DIVMTQSPLSLPVTPGEPASISCRSSQSLVHSNRNTYLHWYQQKPGQAPRLLIYKVSNRFSGVPDRFSGSGSGTDFTLKISRVEAEDVGVYYCGQGTQVPYTFGQGTKLEIKRTVAAPSVFIFPPSDEQLKSGTASVVCLLNNFYPREAKVQWKVDNALQSGNSQESVTEQDSKDSTYSLSSTLTLSKADYEKHKVYACEVTHQGLSSPVTKSFNRGEC
notes: one-arm antibody (one Fab)
B5: CE115HA000 V100cD one-arm antibody (antibody, human IgG1, kappa, L234A L235A, N297A, name in Kabat numbering)
heavy: QVQLVESGGGVVQPGRSLRLSCAASGFTFSNAWMHWVRQAPGKGLEWVAQIKAKSNNYATYYAESVKGRFTISRDDSKNSLYLQMNSLKTEDTAVYYCRYVHYGAYYGDDAWGQGTTVTVSSASTKGPSVFPLAPSSKSTSGGTAALGCLVKDYFPEPVTVSWNSGALTSGVHTFPAVLQSSGLYSLSSVVTVPSSSLGTQTYICNVNHKPSNTKVDKKVEPKSCDKTHTCPPCPAPEAAGGPSVFLFPPKPKDTLMISRTPEVTCVVVDVSHEDPEVKFNWYVDGVEVHNAKTKPREEQYASTYRVVSVLTVLHQDWLNGKEYKCKVSNKALPAPIEKTISKAKGQPREPQVYTLPPSRCELTKNQVSLSCAVKGFYPSDIAVEWESNGQPENNYKTTPPVLDSDGSFFLVSKLTVDKSRWQQGNVFSCSVMHEALHNHYTQKSLSLSPDYKDDDDK
chain: EPKSSDKTHTCPPCPAPELLGGPSVFLFPPKPKDTLMISRTPEVTCVVVDVSHEDPEVKFNWYVDGVEVHNAKTKPREEQYNSTYRVVSVLTVLHQDWLNGKEYKCKVSNKALPAPIEKTISKAKGQPREPQVCTLPPSRDELTKNQVSLWCLVKGFYPSDIAVEWESNGQPENNYKTTPPVLDSDGSFFLYSKLTVDKSRWQQGNVFSCSVMHEALHNRYTQKSLSLSP
light: DIVMTQSPLSLPVTPGEPASISCRSSQSLVHSNRNTYLHWYQQKPGQAPRLLIYKVSNRFSGVPDRFSGSGSGTDFTLKISRVEAEDVGVYYCGQGTQVPYTFGQGTKLEIKRTVAAPSVFIFPPSDEQLKSGTASVVCLLNNFYPREAKVQWKVDNALQSGNSQESVTEQDSKDSTYSLSSTLTLSKADYEKHKVYACEVTHQGLSSPVTKSFNRGEC
notes: one-arm antibody (one Fab)
B6: CE115HA000 V95G one-arm antibody (antibody, human IgG1, kappa, L234A L235A, N297A, name in Kabat numbering)
heavy: QVQLVESGGGVVQPGRSLRLSCAASGFTFSNAWMHWVRQAPGKGLEWVAQIKAKSNNYATYYAESVKGRFTISRDDSKNSLYLQMNSLKTEDTAVYYCRYGHYGAYYGVDAWGQGTTVTVSSASTKGPSVFPLAPSSKSTSGGTAALGCLVKDYFPEPVTVSWNSGALTSGVHTFPAVLQSSGLYSLSSVVTVPSSSLGTQTYICNVNHKPSNTKVDKKVEPKSCDKTHTCPPCPAPEAAGGPSVFLFPPKPKDTLMISRTPEVTCVVVDVSHEDPEVKFNWYVDGVEVHNAKTKPREEQYASTYRVVSVLTVLHQDWLNGKEYKCKVSNKALPAPIEKTISKAKGQPREPQVYTLPPSRCELTKNQVSLSCAVKGFYPSDIAVEWESNGQPENNYKTTPPVLDSDGSFFLVSKLTVDKSRWQQGNVFSCSVMHEALHNHYTQKSLSLSPDYKDDDDK
chain: EPKSSDKTHTCPPCPAPELLGGPSVFLFPPKPKDTLMISRTPEVTCVVVDVSHEDPEVKFNWYVDGVEVHNAKTKPREEQYNSTYRVVSVLTVLHQDWLNGKEYKCKVSNKALPAPIEKTISKAKGQPREPQVCTLPPSRDELTKNQVSLWCLVKGFYPSDIAVEWESNGQPENNYKTTPPVLDSDGSFFLYSKLTVDKSRWQQGNVFSCSVMHEALHNRYTQKSLSLSP
light: DIVMTQSPLSLPVTPGEPASISCRSSQSLVHSNRNTYLHWYQQKPGQAPRLLIYKVSNRFSGVPDRFSGSGSGTDFTLKISRVEAEDVGVYYCGQGTQVPYTFGQGTKLEIKRTVAAPSVFIFPPSDEQLKSGTASVVCLLNNFYPREAKVQWKVDNALQSGNSQESVTEQDSKDSTYSLSSTLTLSKADYEKHKVYACEVTHQGLSSPVTKSFNRGEC
notes: one-arm antibody (one Fab)

Molecular target: T1, CD3 epsilon homodimer protein (UniProt P07766 23-126)
T1 construct: Immobilized on Sensor chip CM4 by amine coupling; construct not described; also called CD3 (CD3 epsilon)
Test: SPR Biacore T200, CD3 epsilon homodimer on CM4 chip, antibody as analyte;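 further: Amine-coupled CD3 epsilon homodimer, run at 25 °C in HBS-EP+ buffer, ratio is bound amount of each single-residue H chain variant over that of the parent antibody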

T1 sequence (P07766 23-126): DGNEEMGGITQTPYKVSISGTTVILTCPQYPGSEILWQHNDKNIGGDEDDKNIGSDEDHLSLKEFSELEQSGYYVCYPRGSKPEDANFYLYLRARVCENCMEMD

Row | Binder | ratio of amounts bound (Y/X vs CE115HA000)
1 | B1 | 0.24
2 | B2 | 0.64
3 | B3 | 0.22
4 | B4 | 0.46
5 | B5 | 0.44
6 | B6 | 0.19
